The values below come from patent US20090099029A1, “Methods and substrates for conducting assays” (Invitrogen Corporation, priority 2005, published 2009).

To fix the notation:
B1: SGK (protein, UniProt O00141 1-431, looked up)
Serine/threonine-protein …: MTVKTEAAKGTLTYSRMRGMVAILIAFMKQRRMGLNDFIQKIANNSYACKHPEVQSILKISQPQEPELMNANPSPPPSPSQQINLGPSSNPHAKPSDFHFLKVIGKGSFGKVLLARHKAEEVFYAVKVLQKKAILKKKEEKHIMSERNVLLKNVKHPFLVGLHFSFQTADKLYFVLDYINGGELFYHLQRERCFLEPRARFYAAEIASALGYLHSLNIVYRDLKPENILLDSQGHIVLTDFGLCKENIEHNSTTSTFCGTPEYLAPEVLHKQPYDRTVDWWCLGAVLYEMLYGLPPFYSRNTAEMYDNILNKPLQLKPNITNSARHLLEGLLQKDRTKRLGAKDDFMEIKSHVFFSLINWDDLINKKITPPFNPNVSGPNDLRHFDPEFTEEPVPNSIGKSPDSVLVTASVKEAAEAFLGFSYAPPTDSFL
B2: EPHB4 (protein)
chain: LCLRKQSNGREAEYSDKHGQYLIGHGTKVYIDPFTYEDPNEAVREFAKEIDVSYVKIEEVIGAGEFGEVCRGRLKAPGKKESCVAIKTLKGGYTERQRREFLSEASIMGQFEHPNIIRLEGVVTNSMPVMILTEFMENGALDSFLRLNDGQFTVIQLVGMLRGIASGMRYLAEMSYVHRDLAARNILVNSNLVCKVSDFGLSRFLEENSSDPTYTSSLGGKIPIRWTAPEAIAFRKFTSASDAWSYGIVMWEVMSFGERPYWDMSNQDVINAIEQDYRLPPPPDCPTSLHQLMLDCWQKDRNARPRFPQVVSALDKMIRNPASLKIVARENGGASHPLLDQRQPHYSAFGSVGEWLRAIKMGRYEESFAAAGFGSFELVSQISAEDLLRIGVTLAGHQKKILASVQHMKSQAKPGTPGGTGGPAPQY
modifications: left off: small tags and cut ends
B3: RPS6KA4(MSK2) (protein)
chain: MGDEDDDESCAVELRITEANLTGHEEKVSVENFELLKVLGTGAYGKVFLVRKAGGHDAGKLYAMKVLRKAALVQRAKTQEHTRTERSVLELVRQAPFLVTLHYAFQTDAKLHLILDYVSGGEMFTHLYQRQYFKEAEVRVYGGEIVLALEHLHKLGIIYRDLKLENVLLDSEGHIVLTDFGLSKEFLTEEKERTFSFCGTIEYMAPEIIRSKTGHGKAVDWWSLGILLFELLTGASPFTLEGERNTQAEVSRRILKCSPPFPPRIGPVAQDLLQRLLCKDPKKRLGAGPQGAQEVRNHPFFQGLDWVALAARKIPAPFRPQIRSELDVGNFAEEFTRLEPVYSPPGSPPPGDPRIFQGYSFVAPSILFDHNNAVMTDGLEAPGAGDRPGRAAVARSAMMQDSPFFQQYELDLREPALGQGSFSVCRRCRQRQSGQEFAVKILSRRLEANTQREVAALRLCQSHPNVVNLHEVHHDQLHTYLVLELLRGGELLEHIRKKRHFSESEASQILRSLVSAVSFMHEEAGVVHRDLKPENILYADDTPGAPVKIIDFGFARLRPQSPGVPMQTPCFTLQYAAPELLAQQGYDESCDLWSLGVILYMMLSGQVPFQGASGQGGQSQAAEIMCKIREGRFSLDGEAWQGVSEEAKELVRGLLTVDPAKRLKLEGLRGSSWLQDGSARSSPPLRTPDVLESSGPAVRSGLNATFMAFNRGKREGFFLKSVENAPLAKRRKQKLRSATASRRGSPAPANPGRAPVASKGAPRRANGPLPPS
modifications: left off: a dimerising Fc or GST
B4: RPS6KA2(RSK3) (protein)
chain: MDLSMKKFAVRRFFSVYLRRKSRSKSSSLSRLEEEGVVKEIDISHHVKEGFEKADPSQFELLKVLGQGSYGKVFLVRKVKGSDAGQLYAMKVLKKATLKVRDRVRSKMERDILAEVNHPFIVKLHYAFQTEGKLYLILDFLRGGDLFTRLSKEVMFTEEDVKFYLAELALALDHLHSLGIIYRDLKPENILLDEEGHIKITDFGLSKEAIDHDKRAYSFCGTIEYMAPEVVNRRGHTQSADWWSFGVLMFEMLTGSLPFQGKDRKETMALILKAKLGMPQFLSGEAQSLLRALFKRNPCNRLGAGIDGVEEIKRHPFFVTIDWNTLYRKEIKPPFKPAVGRPEDTFHFDPEFTARTPTDSPGVPPSANAHHLFRGFSFVASSLIQEPSQQDLHKVPVHPIVQQLHGNNIHFTDGYEIKEDIGVGSYSVCKRCVHKATDTEYAVKIIDKSKRDPSEEIEILLRYGQHPNIITLKDVYDDGKFVYLVMELMRGGELLDRILRQRYFSEREASDVLCTITKTMDYLHSQGVVHRDLKPSNILYRDESGSPESIRVCDFGFAKQLRAGNGLLMTPCYTANFVAPEVLKRQGYDAACDIWSLGILLYTMLAGFTPFANGPDDTPEEILARIGSGKYALSGGNWDSISDAAKDVVSKMLHVDPHQRLTAMQVLKHPWVVNREYLSPNQLSRQDVHLVKGAMAATYFALNRTPQAPRLEPVLSSNLAQRRGMKRLTSTRL
modifications: left off: small tags and cut ends
B5: RPS6KB2(p70S6K2) (protein)
chain: MAAVFDLDLETEEGSEGEGEPELSPADACPLAELRAAGLEPVGHYEEVELTETSVNVGPERIGPHCFELLRVLGKGGYGKVFQVRKVQGTNLGKIYAMKVLRKAKIVRNAKDTAHTRAERNILESVKHPFIVELAYAFQTGGKLYLILECLSGGELFTHLEREGIFLEDTACFYLAEITLALGHLHSQGIIYRDLKPENIMLSSQGHIKLTDFGLCKESIHEGAVTHTFCGTIEYMAPEILVRSGHNRAVDWWSLGALMYDMLTGSPPFTAENRKKTMDKIIRGKLALPPYLTPDARDLVKKFLKRNPSQRIGGGPGDAADVQRHPFFRHMNWDDLLAWRVDPPFRPCLQSEEDVSQFDTRFTRQTPVDSPDDTALSESANQAFLGFTYVAPSVLDSIKEGFSFQPKLRSPRRLNSSPRAPVSPLKFSPFEGFRPSPSLPEPTELPLPPLLPPPPPSTTAPLPIRPPSGTKKSKRGRGRPGR
modifications: left off: a dimerising Fc or GST
B6: SGK2 (protein)
chain: LPDHCYRMNSSPAGTPSPQPSRANGNINLGPSANPNAQPTDFDFLKVIGKGNYGKVLLAKRKSDGAFYAVKVLQKKSILKKKEQSHIMAERSVLLKNVRHPFLVGLRYSFQTPEKLYFVLDYVNGGELFFHLQRERRFLEPRARFYAAEVASAIGYLHSLNIIYRDLKPENILLDCQGHVVLTDFGLCKEGVEPEDTTSTFCGTPEYLAPEVLRKEPYDRAVDWWCLGAVLYEMLHGLPPFYSQDVSQMYENILHQPLQIPGGRTVAACDLLQSLLHKDQRQRLGSKADFLEIKNHVFFSPINWDDLYHKRLTPPFNPNVTGPADLKHFDPEFTQEAVSKSIGCTPDTVASSSGASSAFLGFDYAPEDDDILDC
modifications: left off: a dimerising Fc or GST
B7: RPS6KB1(p70S6K) (protein)
chain: MRRRRRRDGFYPAPDFRDREAEDMAGVFDIDLDQPEDAGSEDELEEGGQLNESMDHGGVGPYELGMEHCEKFEISETSVNRGPEKIRPECFELLRVLGKGGYGKVFQVRKVTGANTGKIFAMKVLKKAMIVRNAKDTAHTKAERNILEEVKHPFIVDLIYAFQTGGKLYLILEYLSGGELFMQLEREGIFMEDTACFYLAEISMALGHLHQKGIIYRDLKPENIMLNHQGHVKLTDFGLCKESIHDGTVTHTFCGTIEYMAPEILMRSGHNRAVDWWSLGALMYDMLTGAPPFTGENRKKTIDKILKCKLNLPPYLTQEARDLLKKLLKRNAASRLGAGPGDAGEVQAHPFFRHINWEELLARKVEPPFKPLLQSEEDVSQFDSKFTRQTPVDSPDDSTLSESANQVFLGFEYVAPSVLES
modifications: left off: a dimerising Fc or GST

The test system of this series is kinases of Table 6 on Myelin Basic Protein (MBP). The experiment in a line: Kinase assay using MBP substrate, ProQ Diamond stain (Table 6). As to conditions: kinase printed on MBP-coated slide; 20 uM ATP, 30° C.; ProQ Diamond Microarray Stain; graded Strong/Weak/Negative. Format: biochemical. In short, it runs like this:
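Bovine dephosphorylated MBP coated on aldehyde- or epoxy-glass slides, kinases printed on top; reaction buffer pH 7.5 with 4 mM MgCl2, 20 uM ATP, 5% DMSO, ± inhibitor, at 30° C. Phosphorylation detected by ProQ Diamond stain, 30 min in dark.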
In the case of B1, the “MBP Kinase Activity” value is reported as “Strong”. Regarding B2, the “MBP Kinase Activity” value is “Strong”. The value for B3 was “Weak”; that for B4 was “Negative”; that for B5 was “Negative”. In the case of B6, the “MBP Kinase Activity” value is recorded as “Weak”.

With B7, the “MBP Kinase Activity” value was “Negative”.
